Measured values from paper PMC10065799, “High-throughput profiling of sequence recognition by tyrosine kinases and SH2 domains using bacterial peptide display” (eLife, 2023).
Blank lines part the entries; values can stand above or below the binder they belong to. Square brackets hold non-standard residues; d marks the D form. pY = N[C@@H](Cc1ccc(OP(=O)(O)O)cc1)C(=O)O

Molecular target: human c-Src SH2 domain (residues 143-250) (human, UniProt P12931-1 143-250, biotin on the Avi tag (co-expression with the biotin ligase BirA))
Assay: fluorescence polarisation; competition: unlabeled phosphopeptide serially diluted against 30 nM fluorescent peptide and 240 nM (1.5 x KD) c-Src SH2; same buffer; 25 °C; cubic binding equation
Conditions: both partners purified

- binding result: binds
B1: CLIP2_Y972 phosphopeptide Ac-QSDQRR(pY)SLIDRG-NH2 (peptide)
peptide: Ac-QSDQRR[pY]SLIDRG-NH2
SMILES: CC[C@H](C)[C@H](NC(=O)[C@H](CC(C)C)NC(=O)[C@H](CO)NC(=O)[C@H](Cc1ccc(OP(=O)(O)O)cc1)NC(=O)[C@H](CCCNC(=N)N)NC(=O)[C@H](CCCNC(=N)N)NC(=O)[C@H](CCC(N)=O)NC(=O)[C@H](CC(=O)O)NC(=O)[C@H](CO)NC(=O)[C@H](CCC(N)=O)NC(C)=O)C(=O)N[C@@H](CC(=O)O)C(=O)N[C@@H](CCCNC(=N)N)C(=O)NCC(N)=O
notes: source: synthetic peptide (synthesized in-house, RP-HPLC purified)

- binding result: binds
B2: CLIP2_Y972_R977P phosphopeptide Ac-QSDQRR(pY)SLIDPG-NH2 (peptide)
peptide: Ac-QSDQRR[pY]SLIDPG-NH2
SMILES: CC[C@H](C)[C@H](NC(=O)[C@H](CC(C)C)NC(=O)[C@H](CO)NC(=O)[C@H](Cc1ccc(OP(=O)(O)O)cc1)NC(=O)[C@H](CCCNC(=N)N)NC(=O)[C@H](CCCNC(=N)N)NC(=O)[C@H](CCC(N)=O)NC(=O)[C@H](CC(=O)O)NC(=O)[C@H](CO)NC(=O)[C@H](CCC(N)=O)NC(C)=O)C(=O)N[C@@H](CC(=O)O)C(=O)N1CCC[C@H]1C(=O)NCC(N)=O
notes: as for B1
